Assay results published in patent US12571058.

Biological target: histidine kinase UzcS (Caulobacter crescentus NA1000)
Experiment: cell-based or functional assay

histidine kinase UzcS (Caulobacter crescentus NA1000), sequence (chain, as listed by the source limits assumed, form in doubt): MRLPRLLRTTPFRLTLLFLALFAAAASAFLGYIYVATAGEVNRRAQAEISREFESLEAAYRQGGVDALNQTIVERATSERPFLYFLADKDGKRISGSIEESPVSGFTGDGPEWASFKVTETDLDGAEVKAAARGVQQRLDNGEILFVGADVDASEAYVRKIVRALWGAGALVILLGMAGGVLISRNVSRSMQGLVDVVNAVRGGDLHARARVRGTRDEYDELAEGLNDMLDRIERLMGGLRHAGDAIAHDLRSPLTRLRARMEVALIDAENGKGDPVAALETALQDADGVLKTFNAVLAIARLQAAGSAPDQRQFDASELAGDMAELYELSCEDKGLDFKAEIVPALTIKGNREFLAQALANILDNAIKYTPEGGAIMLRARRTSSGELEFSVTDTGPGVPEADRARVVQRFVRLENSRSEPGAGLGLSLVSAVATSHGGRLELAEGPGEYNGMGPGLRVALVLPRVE

A fold decrease in U detection limit of UzcRS (reporter fluorescence with and without UzcY, FIG. 12) greater than 4 fold was found for UzcY in this work.
